The values that follow come from PMC6213277.

The target of assay [1] is McjD-C547 (cys-less McjD with the native cysteine C547 only), labelled with Alexa555 and Alexa647 (Escherichia coli) (UniProt Q9X2W0). Nature of the assay: FRET or BRET; single-molecule FRET, confocal scanning, 10 ms time resolution; labelled McjD reconstituted in biotin-DOPE proteoliposomes (protein to lipid ~1:1,000 w/w) immobilised through neutravidin on PEG-biotin coverslips; oxygen-free buffer with Trolox; FRET between the single cysteines of the two protomers. In general terms: BRET reads energy transfer from a luciferase to a nearby fluorophore.

Assay [2] concerns the target McjD L67C (single cysteine in cys-less McjD), labelled with Alexa555 and Alexa647 (Escherichia coli) (UniProt Q9X2W0).
Assay [3] has as its target McjD Y64C (single cysteine in cys-less McjD), labelled with Alexa555 and Alexa647 (Escherichia coli) (UniProt Q9X2W0).

For “McjD-C547 (cys-less McjD with the native cysteine C547 only), labelled with Alexa555 and Alexa647 (from UniProt Q9X2W0 1-580) (natural protein)”, the lifetime of the dimerized ATP-free NBD state in assay [1] was 82 ms.

B1: antibacterial peptide MccJ25 (peptide)
peptide: GGAGHVPEYFVGIGTPISFYG
As to B1, in assay [2], the mean apparent FRET efficiency E* between the dyes at L67C of the two protomers (opening of the TMD), proteoliposomes, with 10 mM ATP and 200 uM MccJ25 (apo 0.69) amounted to 0.51; the mean apparent FRET efficiency E* between the dyes at L67C of the two protomers (opening of the periplasmic gate of the TMD), detergent, with ATP + MccJ25 (apo 0.95; ATP alone 0.95) was found to be 0.83. In assay [3], the mean apparent FRET efficiency E* between the dyes at Y64C of the two protomers (opening of the TMD), proteoliposomes, with 10 mM ATP and 200 uM MccJ25, first population (apo 0.81 & 0.60) stood at 0.82; the mean apparent FRET efficiency E* between the dyes at Y64C of the two protomers (opening of the TMD), proteoliposomes, with 10 mM ATP and 200 uM MccJ25, second population (apo 0.81 & 0.60) stood at 0.52; the mean apparent FRET efficiency E* between the dyes at Y64C of the two protomers (opening of the periplasmic gate of the TMD), detergent, with ATP + MccJ25 (apo 1.07; ATP alone 1.01) was 0.91.
